Assay results published in publication PMC1523230, “Structural Organization of the 19S Proteasome Lid: Insights from MS of Intact Complexes” (PLoS Biology, 2006).

T1: Rpn3 (S. cerevisiae, UniProt P40016 17-523)
T1 construct: Rpn3, subunit of the 19S proteasome lid, S. cerevisiae; from the measured mass the first 16 residues are truncated; source: endogenous, S. cerevisiae strain RJD2909; in lysate, then co-purified with Rpn11^H12 as the 19S lid (Ni-NTA, Sephacryl S-400 gel filtration)
T1 sequence (looked up): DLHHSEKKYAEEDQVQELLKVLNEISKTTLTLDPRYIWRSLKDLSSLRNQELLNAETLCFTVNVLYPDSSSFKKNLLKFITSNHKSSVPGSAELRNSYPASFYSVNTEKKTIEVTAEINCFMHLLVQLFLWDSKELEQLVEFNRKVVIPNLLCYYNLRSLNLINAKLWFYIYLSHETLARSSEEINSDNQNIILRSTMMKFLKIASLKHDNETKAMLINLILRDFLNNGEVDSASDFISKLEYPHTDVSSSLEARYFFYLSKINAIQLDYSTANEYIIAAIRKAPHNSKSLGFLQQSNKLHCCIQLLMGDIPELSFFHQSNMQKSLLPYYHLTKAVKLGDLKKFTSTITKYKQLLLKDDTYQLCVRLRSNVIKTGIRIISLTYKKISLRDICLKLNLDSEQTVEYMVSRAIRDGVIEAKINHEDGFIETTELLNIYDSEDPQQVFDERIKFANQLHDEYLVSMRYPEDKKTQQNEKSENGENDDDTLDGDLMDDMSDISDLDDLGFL

T2: Rpn7 (S. cerevisiae, UniProt Q06103 1-429)
T2 construct: Rpn7, subunit of the 19S proteasome lid, S. cerevisiae; source: endogenous, S. cerevisiae strain RJD2909; in lysate, then co-purified with Rpn11^H12 as the 19S lid (Ni-NTA, Sephacryl S-400 gel filtration)
T2 sequence (looked up): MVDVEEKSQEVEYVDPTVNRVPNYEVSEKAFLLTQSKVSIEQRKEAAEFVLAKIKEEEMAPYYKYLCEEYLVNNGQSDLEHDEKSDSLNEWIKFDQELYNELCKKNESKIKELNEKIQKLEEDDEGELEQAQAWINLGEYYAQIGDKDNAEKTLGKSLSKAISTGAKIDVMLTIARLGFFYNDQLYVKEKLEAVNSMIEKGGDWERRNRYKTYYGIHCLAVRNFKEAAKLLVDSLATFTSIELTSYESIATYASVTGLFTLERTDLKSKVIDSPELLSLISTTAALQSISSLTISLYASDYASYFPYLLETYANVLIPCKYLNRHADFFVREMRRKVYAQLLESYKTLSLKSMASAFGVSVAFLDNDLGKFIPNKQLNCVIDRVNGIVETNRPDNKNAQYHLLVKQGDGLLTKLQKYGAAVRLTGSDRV

T3: Rpn9 (S. cerevisiae, UniProt Q04062 1-393)
T3 construct: Rpn9, subunit of the 19S proteasome lid, S. cerevisiae; source: endogenous, S. cerevisiae strain RJD2909; in lysate, then co-purified with Rpn11^H12 as the 19S lid (Ni-NTA, Sephacryl S-400 gel filtration)
T3 sequence (looked up): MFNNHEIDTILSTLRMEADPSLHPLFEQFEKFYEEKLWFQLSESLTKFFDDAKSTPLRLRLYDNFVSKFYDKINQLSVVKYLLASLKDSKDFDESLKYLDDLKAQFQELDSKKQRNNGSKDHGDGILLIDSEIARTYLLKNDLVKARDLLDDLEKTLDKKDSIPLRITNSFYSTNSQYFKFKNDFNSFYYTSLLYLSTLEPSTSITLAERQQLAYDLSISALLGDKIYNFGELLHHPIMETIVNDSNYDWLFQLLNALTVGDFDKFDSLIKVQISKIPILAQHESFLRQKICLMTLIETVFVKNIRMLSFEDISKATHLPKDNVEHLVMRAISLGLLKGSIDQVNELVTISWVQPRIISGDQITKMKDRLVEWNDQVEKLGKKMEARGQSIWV

T4: Rpn6 (S. cerevisiae, UniProt Q12377 1-434)
T4 construct: Rpn6, subunit of the 19S proteasome lid, S. cerevisiae; Present in substoichiometric amounts: a part of the purified lid complexes lacks Rpn6; also called Rnp6; source: endogenous, S. cerevisiae strain RJD2909; in lysate, then co-purified with Rpn11^H12 as the 19S lid (Ni-NTA, Sephacryl S-400 gel filtration)
T4 sequence (looked up): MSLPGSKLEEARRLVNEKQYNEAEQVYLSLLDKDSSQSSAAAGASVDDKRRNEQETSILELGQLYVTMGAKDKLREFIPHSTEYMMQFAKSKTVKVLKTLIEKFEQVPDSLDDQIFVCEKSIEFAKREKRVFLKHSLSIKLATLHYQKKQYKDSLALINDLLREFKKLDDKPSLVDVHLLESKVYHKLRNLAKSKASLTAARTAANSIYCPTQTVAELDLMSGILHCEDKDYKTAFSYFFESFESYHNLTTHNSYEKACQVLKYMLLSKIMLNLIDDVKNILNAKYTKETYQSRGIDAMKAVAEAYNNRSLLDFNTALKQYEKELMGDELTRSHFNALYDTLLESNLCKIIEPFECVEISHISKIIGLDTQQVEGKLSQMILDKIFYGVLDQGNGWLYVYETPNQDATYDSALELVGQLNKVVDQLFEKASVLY

B1: Sem1 (natural protein, S. cerevisiae, UniProt O94742 2-89, looked up)
chain: STDVAAAQAQSKIDLTKKKNEEINKKSLEEDDEFEDFPIDTWANGETIKSNAVTQTNIWEENWDDVEVDDDFTNELKAELDRYKRENQ
modifications: N-terminal amino group acetylated (initiator methionine removed)
notes: Sem1, subunit of the 19S proteasome lid, S. cerevisiae (10 kDa); the initiator methionine is removed; source: endogenous, S. cerevisiae strain RJD2909; in lysate, then co-purified with Rpn11^H12 as the 19S lid (Ni-NTA, Sephacryl S-400 gel filtration)
B2: Rpn5 (natural protein, S. cerevisiae, UniProt Q12250 1-445, looked up)
chain: MSRDAPIKADKDYSQILKEEFPKIDSLAQNDCNSALDQLLVLEKKTRQASDLASSKEVLAKIVDLLASRNKWDDLNEQLTLLSKKHGQLKLSIQYMIQKVMEYLKSSKSLDLNTRISVIETIRVVTENKIFVEVERARVTKDLVEIKKEEGKIDEAADILCELQVETYGSMEMSEKIQFILEQMELSILKGDYSQATVLSRKILKKTFKNPKYESLKLEYYNLLVKISLHKREYLEVAQYLQEIYQTDAIKSDEAKWKPVLSHIVYFLVLSPYGNLQNDLIHKIQNDNNLKKLESQESLVKLFTTNELMRWPIVQKTYEPVLNEDDLAFGGEANKHHWEDLQKRVIEHNLRVISEYYSRITLLRLNELLDLTESQTETYISDLVNQGIIYAKVNRPAKIVNFEKPKNSSQLLNEWSHNVDELLEHIETIGHLITKEEIMHGLQAK
notes: Rpn5, subunit of the 19S proteasome lid, S. cerevisiae; source: endogenous, S. cerevisiae strain RJD2909; in lysate, then co-purified with Rpn11^H12 as the 19S lid (Ni-NTA, Sephacryl S-400 gel filtration)
B3: Rpn11^H12 (natural protein, S. cerevisiae, UniProt P43588 1-306, looked up)
chain: MERLQRLMMNSKVGSADTGRDDTKETVYISSIALLKMLKHGRAGVPMEVMGLMLGEFVDDYTVNVVDVFAMPQSGTGVSVEAVDDVFQAKMMDMLKQTGRDQMVVGWYHSHPGFGCWLSSVDVNTQKSFEQLNSRAVAVVVDPIQSVKGKVVIDAFRLIDTGALINNLEPRQTTSNTGLLNKANIQALIHGLNRHYYSLNIDYHKTAKETKMLMNLHKEQWQSGLKMYDYEEKEESNLAATKSMVKIAEQYSKRIEEEKELTEEELKTRYVGRQDPKKHLSETADETLENNIVSVLTAGVNSVAIK
notes: Rpn11, subunit of the 19S proteasome lid, S. cerevisiae; tagging cassette of plasmid pT2H12 integrated directly before the stop codon of RPN11; also called modified Rpn11; source: S. cerevisiae strain RJD2909 (tag integrated at the chromosomal RPN11 locus); in lysate, then purified as the 19S lid (Ni-NTA, Sephacryl S-400 gel filtration); not shown: His12, C-terminal, kept
B4: Rpn8 (natural protein, S. cerevisiae, UniProt Q08723 1-338, looked up)
chain: MSLQHEKVTIAPLVLLSALDHYERTQTKENKRCVGVILGDANSSTIRVTNSFALPFEEDEKNSDVWFLDHNYIENMNEMCKKINAKEKLIGWYHSGPKLRASDLKINELFKKYTQNNPLLLIVDVKQQGVGLPTDAYVAIEQVKDDGTSTEKTFLHLPCTIEAEEAEEIGVEHLLRDVRDQAAGGLSIRLTNQLKSLKGLQSKLKDVVEYLDKVINKELPINHTILGKLQDVFNLLPNLGTPDDDEIDVENHDRINISNNLQKALTVKTNDELMVIYISNLVRSIIAFDDLIENKIQNKKIQEQRVKDKQSKVSDDSESESGDKEATAPLIQRKNKKN
notes: Rpn8, subunit of the 19S proteasome lid, S. cerevisiae; source: endogenous, S. cerevisiae strain RJD2909; in lysate, then co-purified with Rpn11^H12 as the 19S lid (Ni-NTA, Sephacryl S-400 gel filtration)

Legend:
Rpn3 [1] = target: T1, Rpn3; assay: cross-linking; purified lid 4.8 uM, BS3 at a ratio of 1:50, 2 h on ice, 200 mM NaCl, 50 mM HEPES pH 7.5; bands A-F of a Bis-Tris 4-12% denaturing gel digested with trypsin and identified by MALDI-TOF/TOF MS and MS/MS; details: both partners purified
Rpn7 [2] = target: T2, Rpn7; assay: as above; details: both partners purified
Rpn11^H12 = target: B3; assay: affinity purification with mass spectrometry; Rpn11^H12 held on Ni-NTA from yeast lysate, gel filtration; subunits identified by MALDI-TOF/TOF peptide mapping and database search; details: partners not purified
Rpn8 = target: B4; assay: as above; details: partners not purified
Rpn7 [3] = target: T2, Rpn7; assay: as above; details: partners not purified
Rpn3 [4] = target: T1, Rpn3; assay: native MS; intact endogenous 19S lid purified through Rpn11^H12, buffer exchanged into 1 M ammonium acetate, nano-electrospray on a high-mass Q-TOF; MS/MS of the 47+ charge state at 100 and 120 V; details: both partners purified
Rpn5 [5] = target: B2; assay: as above; details: both partners purified
Rpn5 [6] = target: B2; assay: cross-linking; purified lid 4.8 uM, BS3 at a ratio of 1:50, 2 h on ice, 200 mM NaCl, 50 mM HEPES pH 7.5; bands A-F of a Bis-Tris 4-12% denaturing gel digested with trypsin and identified by MALDI-TOF/TOF MS and MS/MS; details: both partners purified
Rpn9 = target: T3, Rpn9; assay: native MS; 185-kDa subcomplex present in the solution of the purified lid, 1 M ammonium acetate; 34+ charge state isolated, MS/MS with argon at 130 V; details: both partners purified
Rpn6 = target: T4, Rpn6; assay: as above; details: both partners purified

Binder: B1
binding result (Rpn3 [1]): binds
binding result (Rpn7 [2]): binds
binding result (Rpn11^H12): binds

Binder: B2
binding result (Rpn3 [1]): binds

Binder: B3
binding result (Rpn8): binds
binding result (Rpn7 [3]): binds
binding result (Rpn3 [4]): binds
binding result (Rpn5 [5]): binds

Binder: B4
binding result (Rpn5 [6]): binds
binding result (Rpn9): binds
binding result (Rpn6): binds
